From patent publication US20260184778A1 (REGENECORE BIOTECH, published 2026)
Blank lines part the entries; values can stand above or below the molecule they belong to.

Legend:
Experiment in all cases: cell-based or functional assay
IL-5 = IL-5 (human, UniProt P05113 20-134)
IL-4Rα [1] = target: T1, IL-4Rα (human, UniProt P24394 26-232, limits assumed)
IL-4Rα [2] = target: T1, IL-4Rα; remark: listed apart in the source

IL-5, sequence (P05113 20-134 limits assumed): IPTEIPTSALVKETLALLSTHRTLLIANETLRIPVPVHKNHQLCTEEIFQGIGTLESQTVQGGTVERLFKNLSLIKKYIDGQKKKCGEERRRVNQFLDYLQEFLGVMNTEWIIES

- EC50 (nM), neutralizing IL-5-induced TF-1 cell proliferation (control) (IL-5): 0.108 nM
Molecule: hIgG (antibody)

- EC50 (nM), neutralizing IL-4-induced TF-1 proliferation (IL-4Rα [1]): 0.13 nM
- EC50(nM), neutralizing IL-13-induced TF-1 proliferation (IL-4Rα [2]): 0.178 nM
B1: dupilumab (Tab made by the applicant) (antibody, V domains shown)
VH: EVQLVESGGGLEQPGGSLRLSCAGSGFTFRDYAMTWVRQAPGKGLEWVSSISGSGGNTYYADSVKGRFTISRDNSKNTLYLQMNSLRAEDTAVYYCAKDRLSITIRPRYYGLDVWGQGTTVTVSS
VL: DIVMTQSPLSLPVTPGEPASISCRSSQSLLYSIGYNYLDWYLQKSGQSPQLLIYLGSNRASGVPDRFSGSGSGTDFTLKISRVEAEDVGFYYCMQALQTPYTFGQGTKLEIKR

- EC50 (nM), neutralizing IL-5-induced TF-1 cell proliferation (IL-5): 0.122 nM
B2: reslizumab (Tab made by the applicant) (antibody, V domains shown)
VH: EVQLVESGGGLVQPGGSLRLSCAVSGLSLTSNSVNWIRQAPGKGLEWVGLIWSNGDTDYNSAIKSRFTISRDTSKSTVYLQMNSLRAEDTAVYYCAREYYGYFDYWGQGTLVTVSS
VL: DIQMTQSPSSLSASVGDRVTITCLASEGISSYLAWYQQKPGKAPKLLIYGANSLQTGVPSRFSGSGSATDYTLTISSLQPEDFATYYCQQSYKFPNTFGQGTKVEVK
